Assay results as given in PMC12767058.

Target: K-TM protein used for the affinity measurement with hFL (human)
Experiment: BLI; method not given; BLI is the only affinity method that the paper describes (Octet R8, SA chip, PBST); who was immobilised is not said

Substance: hFL lectin (mannose-binding lectin, human recombinant protein)
- Kd: 49.5 nM
